The data set concerns the molecule itself. As to the kind of experiment: SEC; Superdex 200 10/300, 50 mM Tris-HCl pH 8.0, 150 mM NaCl; tag removed with thrombin; oligomeric state estimated from the molecular mass.

The text below walks through data of PMC6322740, “Structural characterization of a pathogenicity-related superoxide dismutase codified by a probably essential gene in Xanthomonas citri subsp. citri” (PLoS ONE, 2019).

B1: XcSOD, manganese containing superoxide dismutase from Xanthomonas citri subsp. citri (enzyme)
chain: MAYTLPQLPYAYDALEPNIDAQTMEIHHTKHHQTYINNVNAALEGTEYADLPIEELVSKLKSLPENLQGPVRNNGGGHANHSLFWTVLSPNGGGEPKGEVAKAIDKDLGGFEKFKEAFTKAAVSRFGSGWAWLSVTPDKKLVVESTANQDSPLFEGNTPILGLDVWEHAYYLKYQNRRPEYIGAFYNAVNWEEVERRYHAAIA
notes: Cloned in pET28a; His-tag removed with thrombin before size exclusion chromatography and crystallization; also called MnSOD; product of the sodM gene (XAC2386); source: E. coli BL21 (DE3), purified (Ni-NTA, thrombin, size exclusion chromatography); not shown: His-tag, N-terminal, cleaved
One may read the stoichiometry N as the number of molecules, sites or subunits per partner or assembly. On to B1, for which the “stoichiometry N” value is 2.
